# Assay results as given in FireProtDB (doi:10.1002/pro.164).
# B1: wild type, Q6T418 (protein)
# chain: MERKTFSFLFLLLLVLASDVAVERGEARTCMIKKEGWGKCLIDTTCAHSCKNRGYIGGNCKGMTRTCYCLVNC
# Details: Vigna radiata; pH 7; 37 °C; GdnHCl; Fluorescence; Tris-HCl 10 mM; NaCl 100 mM; whole UniProt chain shown
protein,measurement,value
B1,denaturant midpoint (higher = more stable),4.17 M
